Experimental findings from paper PMC7341897 (Nature cell biology, 2019) are described below.

The target in one assay is Survivin (UniProt O15392). The experiment in a line: fluorescent peptide partitioning into ISB coacervates. The settings on record: reference: unmodified H3 peptide; sites T3.
Assay [1] has as its target ISB complex lacking amino acids 139-160 of Borealin (UniProt Q9NQS7 1-58; O15392 1-142; Q53HL2 1-280, Δ139-160). The experiment in a line: partitioning of a fluorescent client into preformed coacervates.
The target of assay [2] is INCENP^1-58-Survivin-Borealin (ISB) complex, wild type (UniProt Q9NQS7 1-58; O15392 1-142; Q53HL2 1-280). The description is as above.

In the case of “histone H3 (synthetic N-terminal peptide) (from UniProt P68431) H3pT3 peptide”, the “binding against the reference” value in the assay with Survivin is “stronger”.

B1: hSgo1^1-112 labeled with CF555 (domain or fragment, human, UniProt Q5FBB7 1-112, looked up)
chain: MAKERCLKKSFQDSLEDIKKRMKEKRNKNLAEIGKRRSFIAAPCQIITNTSTLLKNYQDNNKMLVLALENEKSKVKEAQDIILQLRKECYYLTCQLYALKGKLTSQQTVEPA
modifications: CF-555 label (Mix-n-Stain CF-555 labeling kit)
Turning to B1, the binding result in assay [1] and in assay [2] was “binds” in each case.
